This note sets out measurements from patent publication US20240218062A1 (DEVELOPMENT CENTER FOR BIOTECHNOLOGY, published 2024).

Assay [1] concerns the target NTSR1 linear L2-biotin protein (human) (UniProt P30989). In words: ELISA titration on NTSR1, anti-human IgG-HRP, OD450 minus OD650. For orientation: In an ELISA, binding on a coated surface is turned into a signal by an enzyme label.
In a further assay the target is NTSR1 protein (UniProt P30989 1-418, limits assumed). The assay can be described thus: SPR, Biacore T200, NTSR1 protein on CM5 chip, multi-cycle kinetics, 25 C. As to the method:
To know the binding kinetics differences among individual anti-NTSR1 antibodies, surface plasmon resonance (SPR) measurement with BIACORE™ T200 (CYTIVA® Inc.) was used as previously described (Karlsson & Falt, (1997) J. Immunol Methods 200:121-133). Carboxymethylated dextran biosensor chips (CM5, CYTIVA® Inc.) were activated with N-ethyl-N′-(3-dimethylaminopropyl)-carbodiimide hydrochloride (EDC) and N-hydroxysuccinimide (NHS) according to the supplier's instructions. NTSR1 protein was diluted with 10 mM sodium acetate, pH 4.0, into 5 μg/ml before injection at a flow rate of 10 μL/minute to achieve approximately 1500 response units (RU) of coupled protein followed by the injection of 1 M ethanolamine to block unreacted groups. For kinetics measurements, two-fold serial dilutions of anti-NTSR1 mAb (0.3125 nM to 40 nM) were injected in HBS-EP+BIACORET™ running buffer provided by the manufacturer (CYTIVA® Inc.) at 25° C. at a flow rate of 30 μL/min, and binding responses on the NTSR1 protein were corrected by subtraction of responses on a blank flow cell. Association rates (kₒₙ or Kₐ) and dissociation rates (koff or Kd) were calculated using a simple one-to-one Langmuir binding model with separate fittings of kₒₙ and koff. (CYTIVA® BIACORET™ Insight Evaluation Software).
In general terms: Surface plasmon resonance follows binding to a sensor surface in real time, without labels.

Assay [2] deals with T1, NTSR1 on FaDu cells (human, UniProt P30989 1-418).
T1 construct: whole, on cells; Endogenous NTSR1 on the human FaDu cell line; also called NTSR1 expressing cells, FaDu
In words: flow cytometry on FaDu cells (internalization assay), 10 µg/mL ADC on ice for 60 min, anti-human IgG PE [left panel (Trimannosyl anti-NTSR1 ADC]. As to the method: FaDu cells were trypsinized, and then harvested and resuspended in FAC buffer. Controls: secondary Ab anti-human IgG PE (1:200) was added to the FaDu cells. The cells were incubated at 4° C. for time intervals of 0, 0.5, 2, 5 and 24 hours, and then washed by 1 mL of FACS buffer. The supernatant was discarded. Testing groups: FaDu cells were pre-incubated with 10 μg/mL ADCs of trimannosyl and anti-NTSR1 antibodies αNTSR1 (AKT2), αNTSR1 (AKT2 Hu/Hu) and αNTSR1 (AKT2 Hu/Hd) in FACS buffer on ice for 60 min, washed three times with FACS buffer, and then incubated at 37° C. for time intervals of 0, 0.5, 2, 5 and 24 hours.
In general terms: A flow cytometer gives signals particle by particle.

The target of assay [3] is T1, NTSR1 on FaDu cells. In words: flow cytometry on FaDu cells, antibody at 1 ug/mL. The method, then:
(§1) Anti-NTSR1 antibodies were used to detect cells that express NTSR1 on the cell surfaces, for example using FACS. NTSR1 expressing cells, FaDu, were harvested and re-suspended in 5% PBS/FBS buffer. The cells (1×10⁵) were incubated with anti-NTSR1 antibody (1-10 μg/ml) or negative control, at 4° C. for 1 hr, and then stained with goat anti-human IgG FITC conjugate ( 1/1000) at 4° C. for 1 hr. For each assay, two additional controls were prepared; one without primary antibody and the other one with absence of any antibody. All treated samples were analyzed with […]™ (BECTON DICKINSON®) and the results were processed by […]™ software (BECTON DICKINSON®).

For assay [4], the target named is T1, NTSR1 on FaDu cells. The assay can be described thus: flow cytometry on FaDu cells, antibody at 10 ug/ml. The method, then:
as §1

In assay [5] the target is NTSR1 linear L2-biotin protein (human) (UniProt P30989). The assay can be described thus: ELISA on coated NTSR1 linear L2-biotin protein, non-linear regression.
Assay [6] shares this target. The assay can be described thus: ELISA titration, plate coated with NTSR1 linear L2-biotin protein, anti-human IgG-HRP.

T1 sequence (P30989 whole entry): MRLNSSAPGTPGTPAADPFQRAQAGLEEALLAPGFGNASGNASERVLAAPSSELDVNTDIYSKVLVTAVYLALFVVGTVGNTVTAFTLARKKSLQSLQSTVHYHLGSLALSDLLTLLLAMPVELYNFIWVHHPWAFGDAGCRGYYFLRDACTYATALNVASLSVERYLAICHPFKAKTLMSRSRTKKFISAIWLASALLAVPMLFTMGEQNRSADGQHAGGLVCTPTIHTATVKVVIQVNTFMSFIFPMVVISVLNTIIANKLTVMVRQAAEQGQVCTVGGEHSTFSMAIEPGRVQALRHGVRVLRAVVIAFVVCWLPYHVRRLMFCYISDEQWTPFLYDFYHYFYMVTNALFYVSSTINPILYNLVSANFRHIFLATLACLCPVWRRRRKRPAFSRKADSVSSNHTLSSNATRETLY
NTSR1 protein, sequence (P30989 whole entry): as above

B1: humanized antibody AKT2 HuHd (antibody, V domains shown)
VH: QVQLVQSGAEVKKPGASVKVSCKASGYAFTSSWIHWVRQAPGQGLEWMGQIRPNSGNTYYNEKFKVRVTMTRDTSTSTVYMELSSLRSEDTAVYYCARYHYGFDYWGQGTLVTVSS
VL: DIQMTQSPSSLSASVGDRVTITCRSSQSIVHSNGNTYLEWYQQKPGKAPKLLIYKVSNRFSGVPSRFSGSGSGTDFTLTISSLQPEDFATYYCFQGAHLPWTFGQGTKVEIK
notes: Full-length humanized antibody; also called αNTSR1 (AKT2 Hu/Hd)
As usually defined, the EC50 (read off the curve) is the midpoint of the concentration-response curve. Low readings indicate a more potent agent, high ones a less potent agent. Usually Kd stands for the equilibrium constant for the complex coming apart. In general, koff refers to the rate constant with which the complex falls apart. A higher koff goes with a short-lived complex. Broadly, the kon is a measure of how fast the partners come together. Take B1: the EC50 (read off the curve) in assay [1] worked out at 60 pM. In the assay with NTSR1 protein, this molecule had a Kd of 1.43 nM, a koff of 0.000657 s⁻¹ and a kon of 461000 M⁻¹ s⁻¹.

B2: humanized antibody AKT2 HuHu (antibody, V domains shown)
VH: QVQLVQSGAEVKKPGASVKVSCKASGYAFTSSWIHWVRQAPGQGLEWMGQIRPNSGNTYYNEKFKVRVTMTRDTSTSTVYMELSSLRSEDTAVYYCARYHYGFDYWGQGTLVTVSS
VL: DIVMTQTPLSLSVTPGQPASISCRSSQSIVHSNGNTYLEWYLQKPGQSPQLLIYKVSNRFSGVPDRFSGSGSGTDFTLKISRVEAEDVGVYYCFQGAHLPWTFGQGTKVEIK
notes: Full-length humanized antibody; also called αNTSR1 (AKT2 Hu/Hu)
B2 showed an EC50 (read off the curve) in assay [1] of 60 pM. In the assay with NTSR1 protein, this molecule came in with a Kd of 1.03 nM, a koff of 0.000808 s⁻¹ and a kon of 788000 M⁻¹ s⁻¹.

B3: αNTSR1 (AKT2 Hu/Hu) 4 seco-DUBA (antibody, V domains shown)
VH: QVQLVQSGAEVKKPGASVKVSCKASGYAFTSSWIHWVRQAPGQGLEWMGQIRPNSGNTYYNEKFKVRVTMTRDTSTSTVYMELSSLRSEDTAVYYCARYHYGFDYWGQGTLVTVSS
VL: DIVMTQTPLSLSVTPGQPASISCRSSQSIVHSNGNTYLEWYLQKPGQSPQLLIYKVSNRFSGVPDRFSGSGSGTDFTLKISRVEAEDVGVYYCFQGAHLPWTFGQGTKVEIK
modifications: seco-DUBA payload conjugated (trimannosyl ADC); site of conjugation not given
notes: Antibody-drug conjugate of the humanized antibody AKT2 HuHu with seco-DUBA; also called trimannosyl anti-NTSR1 ADC of AKT2 HuHu
As for B3, in the assay with NTSR1 on FaDu cells [2], the binding result is reported as “binds”.

B4: αNTSR1 (AKT2 Hu/Hd) 4 seco-DUBA (antibody, V domains shown)
VH: QVQLVQSGAEVKKPGASVKVSCKASGYAFTSSWIHWVRQAPGQGLEWMGQIRPNSGNTYYNEKFKVRVTMTRDTSTSTVYMELSSLRSEDTAVYYCARYHYGFDYWGQGTLVTVSS
VL: DIQMTQSPSSLSASVGDRVTITCRSSQSIVHSNGNTYLEWYQQKPGKAPKLLIYKVSNRFSGVPSRFSGSGSGTDFTLTISSLQPEDFATYYCFQGAHLPWTFGQGTKVEIK
modifications: seco-DUBA payload conjugated (trimannosyl ADC); site of conjugation not given
notes: Antibody-drug conjugate of the humanized antibody AKT2 HuHd with seco-DUBA; also called trimannosyl anti-NTSR1 ADC of AKT2 HuHd
B4: in the assay with NTSR1 on FaDu cells [2], the binding result is listed as “binds”.

B5: humanized antibody 7C3 HuHd (antibody, V domains shown)
VH: QVQLVQSGAEVKKPGASVKVSCKASGYTFTSSWIHWVRQAPGQGLEWMGQIRPNSGNTYYNEKFKVRVTMTRDTSTSTVYMELSSLRSEDTAVYYCARYYYGFDYWGQGTLVTVSS
VL: DIQMTQSPSSLSASVGDRVTITCRSSQSIVHSNGNTYLEWYQQKPGKAPKLLIYKVSNRFSGVPSRFSGSGSGTDFTLTISSLQPEDFATYYCFQGSHLPWTFGQGTKVEIK
notes: Full-length antibody from the human Fc vectors
As to B5, the “% Flow binding (1 ug/mL)” value in the assay with NTSR1 on FaDu cells [3] was 73%. Besides, the “% Flow binding (10 ug/ml)” value with NTSR1 on FaDu cells [4] was 99%.

B6: humanized 7C3 IMGT (7C3 HuHu) (antibody, V domains shown)
VH: QVQLVQSGAEVKKPGASVKVSCKASGYTFTSSWIHWVRQAPGQGLEWMGQIRPNSGNTYYNEKFKVRVTMTRDTSTSTVYMELSSLRSEDTAVYYCARYYYGFDYWGQGTLVTVSS
VL: DIVMTQTPLSLSVTPGQPASISCRSSQSIVHSNGNTYLEWYLQKPGQSPQLLIYKVSNRFSGVPDRFSGSGSGTDFTLKISRVEAEDVGVYYCFQGSHLPWTFGQGTKVEIK
notes: Full-length antibody with human IgG1 / kappa constant regions (plasmids pTCAEDH 7C3 HUVH IgG1 and pTCAEDL 7C3 HUVL Kappa)
Consider B6, for which the “% Flow binding (1 ug/mL)” value with NTSR1 on FaDu cells [3] stood at 64%. Also, in assay [5], the Kd is 0.294 nM. The molecule further came in with an EC50 (read off the curve) in assay [6] of 30 pM. The “% Flow binding (10 ug/ml)” value with NTSR1 on FaDu cells [4] came out at 98%.

B7: mouse-human chimera antibody AKT2 (antibody, V domains shown)
VH: QVQLQQPGSVLVRPGASVKLSCKASGYAFTSSWIHWAKQRPGQGLEWIGQIRPNSGNTYYNEKFKVKATLTVDTSSSTAYVDLSSLTSEDSAVYYCARYHYGFDYWGQGTLVTVSS
VL: DVLMTQTPLSLPVSLGDQASISCRSSQSIVHSNGNTYLEWYLQKPGQSPKLLIYKVSNRFSGVPDRFSGSGSGTDFTLKISRVEAEDLGVYYCFQGAHLPWTFGGGTKLEIK
notes: Mouse variable domains on human constant regions; also called chimera AKT2 mAb; αNTSR1 (AKT2)
Turning to B7, the EC50 (read off the curve) in assay [1] worked out at 60 pM. In the assay with NTSR1 protein, this molecule returned a Kd of 1.61 nM, a koff of 0.000656 s⁻¹ and an association rate constant (kon) of 407000 M⁻¹ s⁻¹.

B8: αNTSR1 (AKT2) 4 seco-DUBA (antibody, V domains shown)
VH: QVQLQQPGSVLVRPGASVKLSCKASGYAFTSSWIHWAKQRPGQGLEWIGQIRPNSGNTYYNEKFKVKATLTVDTSSSTAYVDLSSLTSEDSAVYYCARYHYGFDYWGQGTLVTVSS
VL: DVLMTQTPLSLPVSLGDQASISCRSSQSIVHSNGNTYLEWYLQKPGQSPKLLIYKVSNRFSGVPDRFSGSGSGTDFTLKISRVEAEDLGVYYCFQGAHLPWTFGGGTKLEIK
modifications: seco-DUBA payload conjugated (trimannosyl ADC); site of conjugation not given
notes: Antibody-drug conjugate of the mouse-human chimera antibody AKT2 with seco-DUBA; also called trimannosyl anti-NTSR1 ADC of AKT2
With B8, the binding result in the assay with NTSR1 on FaDu cells [2] is recorded as “binds”.

B9: mouse-human chimera antibody 7C3 MM (antibody, V domains shown)
VH: QVQLQQPGSVLVRPGDSVMLSCKASGYTFTSSWIHWAKQRPGQGPEWIGQIRPNSGNTYYNEKFKVKATLTVDTSSSTAYVDLSSLTSEDSAVYYCARYYYGFDYWGQGTTVTVSS
VL: DVLMTQTPLSLPVSLGDQASISCRSSQSIVHSNGNTYLEWYLQKPGQSPKLLIYKVSNRFSGVPDRFSGSGSGTDFTLKISRVEAEDLGVYYCFQGSHLPWTFGGGTKLEIK
notes: Mouse 7C3 variable domains sub-cloned into the human Fc chimera expression vectors pTCAEDH and pTCAEDL; The humanized plasmids are named IgG1 and Kappa; also called m7C3; mAb 7C3 MM
As for B9, in the assay with NTSR1 on FaDu cells [3], the “% Flow binding (1 ug/mL)” value is 31%. For the same molecule, the Kd in assay [5] worked out at 0.676 nM. In assay [6], this molecule yielded an EC50 (read off the curve) of 70 pM. Further, the “% Flow binding (10 ug/ml)” value with NTSR1 on FaDu cells [4] turned out to be 91%.
